The text below walks through data of patent publication US7005130.

Assay [1] has as its target HPLC-purified recombinant ORF2 capsid protein of human HEV Sar-55 (baculovirus-expressed) (human HEV, Sar-55 strain (Pakistan)) (UniProt P33426). In words: ELISA, antigen coated at 2 µg/ml, serum 1/200; negative control.
Assay [2] concerns the target HPLC-purified recombinant ORF2 capsid protein of swine HEV (baculovirus-expressed) (swine HEV). Described as above.

Sequence of UniProt P33426 (P33426 112-607): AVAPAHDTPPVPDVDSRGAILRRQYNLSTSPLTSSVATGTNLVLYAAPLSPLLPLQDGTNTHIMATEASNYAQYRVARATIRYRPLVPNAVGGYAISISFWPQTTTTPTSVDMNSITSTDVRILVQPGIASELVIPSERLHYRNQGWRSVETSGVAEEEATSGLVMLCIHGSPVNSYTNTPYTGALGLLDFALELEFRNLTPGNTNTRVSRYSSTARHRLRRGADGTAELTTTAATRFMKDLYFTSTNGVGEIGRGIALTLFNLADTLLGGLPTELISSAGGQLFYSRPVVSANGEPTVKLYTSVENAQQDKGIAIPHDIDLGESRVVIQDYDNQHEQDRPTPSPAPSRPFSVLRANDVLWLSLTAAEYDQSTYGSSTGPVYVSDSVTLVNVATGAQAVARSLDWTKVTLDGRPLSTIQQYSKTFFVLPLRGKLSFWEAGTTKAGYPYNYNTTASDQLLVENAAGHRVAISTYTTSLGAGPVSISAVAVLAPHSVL

For the substance “preinoculation control chicken serum (antibody)”, the OD in assay [1] came out at 0.142 OD at 405 nm; in assay [2] it was 0.103 OD at 405 nm.
